Results taken from patent US20170088632A1 (OMEROS, published 2017).
Blank lines part the entries; values can stand above or below the binder they belong to.

Tests used:
Experiment in all cases: cell-based or functional assay
human MASP-2 [1] = target: T1, human MASP-2 (human, UniProt O00187 16-686)
human MASP-2 [2] = target: T1, human MASP-2; remark: listed apart in the source
[3] = target: T2, African Green monkey MASP-2 (in African Green monkey serum) (African Green monkey)
human MASP-2 [4] = target: T1, human MASP-2; remark: listed apart in the source
[5] = target: T2, African Green monkey MASP-2 (in African …); remark: listed apart in the source
human MASP-2 [6] = target: T1, human MASP-2; remark: listed apart in the source
[7] = target: T2, African Green monkey MASP-2 (in African …); remark: listed apart in the source
human MASP-2 [8] = target: T1, human MASP-2; remark: listed apart in the source

T1 sequence (O00187 16-686): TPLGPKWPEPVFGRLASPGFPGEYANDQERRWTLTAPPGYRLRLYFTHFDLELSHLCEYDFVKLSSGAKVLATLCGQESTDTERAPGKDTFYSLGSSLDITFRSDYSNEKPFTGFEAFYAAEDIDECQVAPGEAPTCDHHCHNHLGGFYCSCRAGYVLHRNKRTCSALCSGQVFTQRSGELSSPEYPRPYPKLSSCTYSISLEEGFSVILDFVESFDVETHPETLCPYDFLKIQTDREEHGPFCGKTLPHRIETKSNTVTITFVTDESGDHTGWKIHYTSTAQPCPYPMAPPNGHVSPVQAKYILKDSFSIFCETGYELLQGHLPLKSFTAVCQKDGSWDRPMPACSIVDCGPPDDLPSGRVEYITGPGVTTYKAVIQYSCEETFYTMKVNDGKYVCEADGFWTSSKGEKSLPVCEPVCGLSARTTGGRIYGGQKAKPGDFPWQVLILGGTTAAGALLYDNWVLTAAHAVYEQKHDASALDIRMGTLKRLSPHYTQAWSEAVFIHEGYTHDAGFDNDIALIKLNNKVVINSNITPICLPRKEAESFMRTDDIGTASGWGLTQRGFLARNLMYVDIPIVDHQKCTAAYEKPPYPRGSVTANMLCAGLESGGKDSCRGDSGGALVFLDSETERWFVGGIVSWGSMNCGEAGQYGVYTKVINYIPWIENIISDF

- Inhibitory activity in Human Serum IC50 (C3b deposition, 0.5% human serum) (human MASP-2 [1]): 20.6 nM
- Functional IC50, C3b deposition, human serum Exp #1 (human MASP-2 [2]): 20.6 nM
- Functional IC50, C3b deposition, human serum Exp #2 (human MASP-2 [2]): 36.7 nM
- Functional IC50, C3b deposition, human serum Exp #3 (human MASP-2 [2]): 41.4 nM
- Functional IC50, C3b deposition, human serum Exp #4 (human MASP-2 [2]): 68.8 nM
- Functional IC50, C3b deposition, non-human primate serum Exp #1 [3]: 114 nM
- Functional IC50, C3b deposition, non-human primate serum Exp #2 [3]: 173 nM
B1: scFv mother clone 3F22 (scFv)
scFv: QVQLQQSGPGLVKPSQTLSLTCAISGDSVSSNSAAWNWIRQSPSRGLEWLGRTYYRSKWYNDYAVSVKSRITINPDTSKNQFSLQLNSVTPEDTAVYYCARDPFGVPFDIWGQGTMVTVSSKLSGSASAPKLEEGEFSEARVSYVLTQPPSVSVAPGQTARVTCGGNNIRSKNVHWYQQKPGQAPVLVVYDDTDRPSGIPERFSGSNSGNTATLTVSRVEAGDEADYYCQVWDTTTDHVVFGGGTKLTVLAAAGSEQKLISEEDLNSHHHHHH

- Inhibitory activity in Human Serum IC50 (C3b deposition, 0.5% human serum) (human MASP-2 [1]): 6.1 nM
- Functional IC50, C3b deposition, human serum Exp #1 (human MASP-2 [2]): 6.1 nM
- Functional IC50, C3b deposition, human serum Exp #2 (human MASP-2 [2]): 96.8 nM
- Functional IC50, C3b deposition, human serum Exp #3 (human MASP-2 [2]): 52.3 nM
- Functional IC50, C3b deposition, human serum Exp #4 (human MASP-2 [2]): 53.5 nM
- Functional IC50, C3b deposition, non-human primate serum Exp #1 [3]: 65.6 nM
- Functional IC50, C3b deposition, non-human primate serum Exp #2 [3]: 128 nM
- C3 Assay IC50 in dilute serum (1%), human serum Exp #1 (human MASP-2 [4]): 53 nM
- C3 Assay IC50 in dilute serum (1%), human serum Exp #2 (human MASP-2 [4]): 52 nM
- C3 Assay IC50 in dilute serum (1%), human serum Exp #3 (human MASP-2 [4]): 97 nM
- C3 Assay IC50 in dilute serum (1%), human serum mean (human MASP-2 [4]): 67 nM
- C3 Assay IC50, non-human primate serum Exp #1 [5]: 65 nM
- C3 Assay IC50, non-human primate serum Exp #2 [5]: 154 nM
- C3 Assay IC50, non-human primate serum mean [5]: 110 nM
- C3 convertase assay using 1% human serum, IC50 (first experiment) (human MASP-2 [6]): 160 nM
- C3 convertase assay using 1% human serum, IC50 (second experiment) (human MASP-2 [6]): 193 nM
B2: scFv mother clone 18L16 (scFv)
scFv: QVTLKESGPVLVKPTETLTLTCTVSGFSLSNARMGVSWIRQPPGKALEWLAHIFSNDEKSYSTSLKSRLTISKDTSKSQVVLTMTNMDPVDTATYYCARMAILTAGGMDVWGQGTTVTVSSKLSGSASAPKLEEGEFSEARVSYVLTQPPSVSASPGQTASITCSGDKLGDKYVSWYQQKPGRSPVLVIYRDTKRPSGIPERFSGSNYGNTATLTISGTQAVDEADYYCQAWDSGSGVFGGGTKVTVLAAAGSEQKLISEEDLNSHHHHHH

- African Green Monkey C3 assay IC50 [7]: 18 nM
B3: MoAb #4 (OMS644), 17D20_3521N11 IgG2 (antibody)
heavy: QVTLKESGPVLVKPTETLTLTCTVSGFSLSRGKMGVSWIRQPPGKALEWLAHIFSSDEKSYRTSLKSRLTISKDTSKNQVVLTMTNMDPVDTATYYCARIRRGGIDYWGQGTLVTVSSASTKGPSVFPLAPCSRSTSESTAALGCLVKDYFPEPVTVSWNSGALTSGVHTFPAVLQSSGLYSLSSVVTVPSSNFGTQTYTCNVDHKPSNTKVDKTVERKCCVECPPCPAPPVAGPSVFLFPPKPKDTLMISRTPEVTCVVVDVSHEDPEVQFNWYVDGVEVHNAKTKPREEQFNSTFRVVSVLTVVHQDWLNGKEYKCKVSNKGLPAPIEKTISKTKGQPREPQVYTLPPSREEMTKNQVSLTCLVKGFYPSDIAVEWESNGQPENNYKTTPPMLDSDGSFFLYSKLTVDKSRWQQGNVFSCSVMHEALHNHYTQKSLSLSPGK
light: QPVLTQPPSLSVSPGQTASITCSGEKLGDKYAYWYQQKPGQSPVLVMYQDKQRPSGIPERFSGSNSGNTATLTISGTQAMDEADYYCQAWDSSTAVFGGGTKLTVLGQPKAAPSVTLFPPSSEELQANKATLVCLISDFYPGAVTVAWKADSSPVKAGVETTTPSKQSNNKYAASSYLSLTPEQWKSHRSYSCQVTHEGSTVEKTVAPTECS

- C3 convertase assay using 1% human serum, IC50 (first experiment) (human MASP-2 [6]): 33.9 nM
- C3 convertase assay using 1% human serum, IC50 (second experiment) (human MASP-2 [6]): 22 nM
- C3 convertase assay using 1% human serum, fold improvement of IC50 (scFv to divalent form), first experiment (human MASP-2 [6]): ~4.7 fold
- C3 convertase assay using 1% human serum, fold improvement of IC50 (scFv to divalent form), second experiment (human MASP-2 [6]): ~8.7 fold
- C3b deposition assay in 1% human serum, IC50 (human MASP-2 [8]): 59 nM
B4: 18L16 mother clone, wild type IgG4 format (antibody, V domains shown)
VH: QVTLKESGPVLVKPTETLTLTCTVSGFSLSNARMGVSWIRQPPGKALEWLAHIFSNDEKSYSTSLKSRLTISKDTSKSQVVLTMTNMDPVDTATYYCARMAILTAGGMDVWGQGTTVTVS
VL: LTQPPSVSASPGQTASITCSGDKLGDKYVSWYQQKPGRSPVLVIYRDTKRPSGIPERFSGSNYGNTATLTISGTQAVDEADYYCQAWDSGSGVFGGGTKVTVLA
